# Measured values: the RNAGym collection of RNA variant scans (doi:10.1073/pnas.2313332121)
# B1: TPR t1 (parent)
# chain: GACCAAUCUGCCCUCAGAGCUCGAGAACAUCUUCGGAUGCAGAGGAGGCAGGCUUCGGUGGCGCGAUAGCGCCAACGUCCUCAACCUCCAAUGCAUCCCACCACAUGAUGAUGCCUGAAGAGCCUUGGUUUUUUG
# Variants of: B1
# Assay: polymerase ribozyme fitness, log enrichment relative to wild type (log ratio); higher = more active; in vitro selection for triplet polymerase activity
# Outline: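 Fitness is a logarithmic measure of how a genotype enriched relative to the wild type, with replicate averages weighted by inverse variance. The logarithm uses base 2, and enrichment came from Illumina sequencing of input and output libraries. Those libraries were PCR-built, transcribed mutants of each subunit of a heterodimeric triplet polymerase ribozyme, passed through one triplicate in vitro selection round that included frozen incubation at −7 °C, gel excision of extended constructs and streptavidin-bead capture. Genotypes were kept only if they had ≥10 input reads and ≥1 read per output.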
row,Variant,polymerase ribozyme fitness (log ratio)
1,GACCAAUAUGCCCUCAGAGCUCGAGAACAUCUUCGGAUGCAGAGGAGGCAGGCUUCGGUGGCGCGAUAGCGCCAACGUCCUCAACCUCCAAUACAUCCCACCACAUGAUGAUGCCUUAAGAGCCUUGUUUUUUUG,-4.74
2,GACCAAUAUGCCCUCAGAGCCCGAGAACAUCUUCGGAUGCAGAGGAGGCAGGCUUCGGUGGCGCGAUAGCGCCAACGUCCUCGACCUCCAAUGCAUCCCACCACAUGAUGAUGCCUAAAGAGCCUUGGUUUUUUG,-1.39
3,GACCAAUAUGCCCUCAGAGCUCGAGAACAUCCUCGGAUGCAGAGGAGGAAGGCUUCGGUGGCGCGAUAGCGCCAACGUCCUCAACCUCCAAUGCAUCCCACCACAUGAUGAUGCCUGAAGAGCCUUGGUUUUUUG,0.0595
4,GACCAAUAUGCCCUCAGAGCUCGAGAACAUCUUCGGAUGCAGAGGAGGCAGGCUUCGGUGGCGCGAUAGCGCCAACGUCCUCAACCUCCAAUGCACCCCACCACAUGAUGAUGCCUGAAGAGACUUGGUUUUUUG,1.93
5,GACCAAUAUGCCCUCAGAGCUCGAGAACAUCUUCGGAUGCAGAGGAGGCAGGCUUCGGUGGCGCGAUAGCGCCAACGUCCUCAACCUCCAAUGCAUCCCACCACAUGAUGAGGCCUGAAGAGCCUUGGUUUUUUG,0.614
6,GACCAAUAUGCCCUCAGAGCUCGAGAACAUCUUCGGAUGCAGAGGAGGCAGGCUUCGGUGGCGCGAUAGCGCCAACGUCCUCAACCUCCAAUGCAUCCCACCACAUGAUGAAGCCUGAAGAGCCUUGGUUUUUUG,1.61
7,GACCAAUAUGCCCUCAGAGCUCGAGAACAUCUUCGGAAGCAUAGAAGGCAGGCUUCGGUGUCGCGAUAGCGCCAACGUCCUCAACCUCCAAUGCAUCCCACCACAUGAUGAUGCCUGAAGAGCCUUGGUUUUUUG,-1.89
8,GACCAAUAUGCCCUCAGAGCUCGAGAACAUCUUCGGAUGCAGAGGAGGCAGGCUUCGGAGGCGCGAUAGCGCCAACGUCCUAAACCUCCAAUGCAACCCACCACAUGAUGAAGCCUGAAGAGCCUUGGUUUUUUG,0.158
9,GACCAAUAUGCCCUCAGAGCUCGAGAACAUCUUCGGAUGCAGAGGAGGCAGGCUUCGGUGGCGCGAUAGCGCCAACGUCCUCAACCUCCAACGCAUCCCACCACAUGAUGAUGCCUGAAGAGCCUUGGUUUUUUG,-0.565
10,GACCAAUAUGCCCUCAGAGCUCGAGAACAUCUUCGGAUGCAGAGGAGGCAGGCUUCGGUGGCGCGAUAGCGCCAACGUCCUCAACCUCCAAUGCAUCCCACCACAUGAUGAUGCCUAAAGUGCCUUGGUUUUUUG,1.21
11,GACCAAUAGGCCCUCAGAGCUCGAGAACAUCUUCGGAUGCGGAGGAGGCAGGCUUCGGUGGCGCGAUAUCGCCAACGUCCUCAACCUCCAAUGCAUCCCACCACAUGAUGAUGCCUGAAGAGCCUUGGUUUUUUG,-0.102
12,GACCAAUAUGCCCUCAGAGCUCGAGAACAUCUUCGGAUGCAGAGGAGGCAGGCUUCGGUGGCGCGAUAGCGCCAACUUCCUAAACCUCCAAUGCAUCCCACCACAUGAUGAUGCCUGAAGAGCCUUGGUUUUUUG,0.031
13,GACCAAUAUGCCCUCAGAGCUCGAGAACAUCUACGGAUGCAUAGGAGGCAGGCUUCGGUGGCGCGAUAGCGCUAACGUCCUCAACCUCCAAUGCAUCCCACCACAUGAUGAAGCCUGAAGAGACUUGGUUUUUUG,-5.52
14,GACCAAUAUGCCCUCAGAGCUCGAGAACAUCUUCGGAUGCAGAGGAGGCAGGCUUCGGUGGCGCGAUAGCGCCAACGUCCUCAACCUCCAAUGCAUCCCACCACAUGAUGAUGCCUGAAGAGCCUUGGCUUUUUG,-1.05
15,GACCAAUAUGCCCUCAGAGCUCGAGAACAUCUUCGGAUGCAGAGGAGGCAGGCUUCGGUGGCGCGAUAGCGCCAACGUCCUCAACCUCCAAUGCAUCCCACCACAUGAUGAUGCCUGAACAGCCUUGGUUUUUUG,1.71
16,GACCAAUAUGCCCUCAGAGCACGAGAACAUCUUCGGAUGCAGAGGUGGCAGGCUUCGGUGGCGCGAUAGCGCCAACGUCCUCAACCUCCAAUGCAUCCCACCACAUGAUGAUGCCUGAAGAGCCUUGGUUUUUUG,-1.03
17,GACCAAUAUGCCCUCAGAGCACGAGAACAUCUUGGGAUGCAGAGGAGGCAGGCUUCGGUGGCGCGAUAGCGCCAACGUCCUCAACCUCCAAUGCAUCCCACCACAUGAGGAUGCCUGAAGAGCCUUGGUUUUUUG,-6.49
18,GACCAAUAUGCCCUCAGAGCUCGAGAACAUCUUCGGAUGCAGAGGAGGCAGGCUUCGGGGGCGCGAUAGCGGCAACGUCCUCAACCUCCAAUGCAUCCCACCACAUGAUGAUGCCUGAAGAGCCUUGGUUUUGUG,-3.35
19,GACCAAUAUGCCCUCAGAGCUCGAGAACAUCUGCGGUUGCAGAGGAGGCAGGCUUCGGUGGCGCGAUAGCGCCAACGUCCUCAACCUCCAAUGCAUCCCACCACAUGAUGAUGCCUGAAGAGCCUUGGUUUUUUG,-6.73
20,GACCAAUAUGCCCUCAGAGCUCGAGAACAUCUUCGGAUGCAGAGGAGGCAGGCUUCGGUGGCGCGAUAGCGCCAACGUCCUCAACCUCCAAUCCAUCCCCCCACAUGAUGAUGCUUGAAGAGCCUUGGUUUUUUG,-4.5
21,GACCAAUAUGCCCUCAGAGCUCGAGAACAUCUUCGGAUGCAGAGGAGGCAGGCUUCGGUGGCGCGAUAGCGCCAACGUCCUCAACCUCCAAUACAUCCCACCACAUGGUGAUGCCUGAAGAGCCUUGGUUUUUUG,-2.37

row,Variant,polymerase ribozyme fitness (log ratio)
1,GACCAAUAUGCCCUCAGAGCUCGAGAACAUCUUCGGAUGCAGAGGAGGCAGGCUUCGGUGGCGCGAUAGCGCCAACGUCCUCAACCUCCAAUUCAUCCCACCACAAGAUGAUGCCUGAAGAGCCUUGGUUUUUUG,-0.449
2,GACCAAUAUGCCCUCAGAGCUCGAGAACAUCUUCGGAUGCAGAGGAGGCAGGCUUCGGUGGCGCGAUAGCGCCAACGUCCUCAACCACCAAUGCAUCCCACCACAUCAUGAUGCCUGAAGAGCCUUGGUUUUUUG,-4.36
3,GACCAAUAUGCCCUCAGAGCUCGAGAACAUCUUCGGAUGCAGAGGAGGCAGGCUUCGGUGGCGCGAUAGCGCCAACGUCCUCAACCUCCAAUGCAUCCCACCACAUGAUGAUUCCUGAAGAGCCUUGGUUUUUUG,-1.81
4,GACCAAUAUGCCCUCAGAGCUCGAGAACAUCUUCGGAUGCAGAGGAGGCAGGCUUCGGUGGCGCGAUAGCGCCAACGUCCUCAACCUCCAAUGCAUCCCACCACAUGAAGAUGCCUGAAGAGCCUUGGUUUUUUG,-4.14
5,GACCAAUAUGCCCUCAGAGCUCGAGAACAUCUUCGGAUGCAGAGGAGGCAGGCAUCGGUGGUGCGAUAGCGCCAACGUCCUCAACCUCCAAUGCAUCCCACCACAUGAUUAUGCCUGAAGAGCCCUGGUUUUUUG,-1.99
6,GACCAAUAUGCCCUCAGAGCUCGAGAACAUCUUCGGAAGCAGAGGCGGCAGGCUUCGGUGGCGCGAUAGCGUCAACGUCCUCAACCUCCAAUGCAUCCCACCACAUGAUGAUGCCUGAAGAGCCUUGGUUUUUUG,-1.72
7,GACCAAUAUGCCCUCAGAGCUCGAGAACAUCUUCGGAUGCAGAGGAGGCAGGCUUCGGGGGCGCGAUAGCGCCAACGUCCUCAACCUCCAAUGCAUCCCACCACAUUAUGAUGCCUGAAGAGCCUUGGUUUUUUG,-5.05
8,GACCAAUAUGCCCUCAGAGCUCGAGAACAUCUUCGGAUGCAGAGGAGGCAGGCUUCGGUGGCGCGAUAGCGCCAACGUCCUCAACCUCCAAUGCACCCCACCACAUGAUGAUGCCGGAAGAGCCUUGGUUUUUUG,-0.0172
9,GACCAAUAUGCCCCCAGAGCUCGAGAACAUCUUCGGAUUCAGAGGAGGCAGGCUUCGGUGGCGCGAUAGCGCCAACGUCCUCAACCUCCAAUGCAUCCCACGACAUGAUGAUGCCUAAAGAGCCUUGGUUUUUUG,-6.22
10,GACCAAUAUGCCCUCAGAGCUCGAGAACAUCUUCGGAUGCAGAGGAGGCAGGCUUCGGUGGCGCGAUAGCGCCAACGUCCUCAACCUCCAAUGCAUCCCACCACAUGAUGAUGCCUGAAGAGCCUUGGUUUUUUU,-0.432
11,GACCAAUAUGCCCUCAGAGCUCGAGAACAUCUUCGGAUGCAGAGGAGGCAGGCUUCGGUGGCGCGAUAGCGCCAACAUCCUCAACCUCCAAUGCAUCCCACCACAUGAUGAUGCCUGAAGAGCCUUGGUUUUUUG,0.514
12,GACCAAUAAGCCCUCAGAGCUCGAGAACAUCUUCGGAUGCAGAGGAGGCUGGCUUCGGUGGCGCGAUAGCGCCAACGUCUUCACCCUCCAAUGCAUCCCACCACAUGAUGAUGCCUGAAGAGCCUUGGUUUUUUG,-2.54
13,GACCAAUAUGCCCUCAGAGCUCGAGAACAUCUUCGGAUGCAGAGGAGGCAGGCUCCGGUGGCGCGAUAGCGCCAACGUGCUCAACCUCCAAUGAAUCCCACCACAUGAUGAUGCCUGAAGAGCCUUGGUUUUUUG,-3.64
14,GACCAAUAUGCCCUCAGAGCUCGAGAACAACUUCGGAUGCAGAGGCGGCAGGCUUCGGUGGCGCGAUAGCGCCAACGUCCUCAACCUCCAAUGCAUCCCACCACACGAUGAUGCCUGAAGAGUCUUGGUUUUUUG,-5.15
15,GACCAAUAUGCCCUCAGAGCUCGAGAACAUCUUCGGAUGCAGAGGAGGCAGGCUUCGGUGGCGCGAUAGCGCCAACUUCCUCAACCUCCAAUGCAUCCCACCACAGGAUGAUGCGUGAAGAGCCUUGGUUUUUUG,-1.95
16,GACCAAUAUGCCCUCAGAGCUCGAGAACAUCUUCGGAUGCAGAGGAGGCAGGCUUCGGUGGCGCGAUAGCUCCAACGUCCUCAACCUCCAAUGCAUCCCACCACAUGAUGAUGCCUGAAGAGCCUUGGUUUUUUG,-0.261
17,GACCAAUAUGCCCUCAGAGCUCGAGAACAUCUUCGGAUGCAGAGGAGGCAGGCUUCGGUGGCGCGAUAGCGCCAACGCCCUCAACCUCCAAUGCAUCCCACCACACGAUGAUGUCUGAAGAGCCUUGGUUUUUUG,-2.11
18,GACCAAUAUGCCCUCAGAGCUCGAGAACAUCUUCGGAUGCAGAGGAGGCAGGCUUCGGUGGCGCGAUAGCGCCAACGUCCUCAACCUCCAAUGCAUCCCACCACAUGAUUAUGCCUGAAGAGCCUUGGUUUUUUG,-0.434
19,GACCAAUAUGCCCUCAGAGCUCGAGAACAUCUUCGGAUGCAGAGGAGGCAGGCUUCGGUGGCGCGAUAGCUCCAACGUCCUCACCCUCCAAUGCGUCCCACCACAUGAAGAUGCCUGAAGAGCCUAGGUUUUUUG,-5.61
20,GACCAAUAUGCCCUCAGAGCUCGAGAACAUCUUCGGAUGCAGAGGAGGCAGGCUGCGGUGGCGCGAUAGCGCCAACGUCCUCAACCUCCAAUGCAUCCCACCACAUGAUGAUGAUUGAAGAGCCUUGGUUUUUUG,-2.83
21,GACCAAUAUGCCCGCAGAGCUCGAGAACAUCUUCGGAUGCAGAGGAGGCAGGCUUCGGUGUCGCGAUAGCGCCAACGUCCUCAACCUCCAAUGCAUCCCACCACAUGAUGAUGCCUGAAGAGACUUGGUUAUUUU,1.21
